According to the nanobody polyreactivity screen of Harvey et al. (2022):

Experiment: yeast display, Sf9 membrane polyspecificity reagent, FACS + sequencing; frameworks hold sequencing errors
Outline: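 Galactose-induced (36–48 hours) yeast carrying a synthetic nanobody display library were exposed to 10% biotinylated, detergent-solubilized Sf9 membrane reagent at 4 °C for 1 hour. FACS followed streptavidin microbead enrichment, using low and high (top ~1%) gates for expression (anti-HA) and reagent binding (streptavidin). Colony PCR, MiSeq 2 × 250 sequencing and CDR-length filtering followed. Labels for polyreactivity reflect the gate of origin.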

Sequence | polyreactivity (PSR sort gate)
QVHLVESGGGLVQAGGSLRLSCAASGSTSRTYAMGWNRPQPGKERELVAAISSSGGRTTYADSVKGRFTFSRDNAKNTVSLQMNSLKPEDTAVYYCNARTYSYRGYNYWGQGTQVTVSS | high polyreactivity
QVQLVESGGGLVQAGGSLRLSCAASGFTFYRYARGWYRQAPGKERELVAAISSDGTTYYADSVKGRFTISRDNATNTVYLQMNSLKPEDTAVYYCAKRGYYRSRRYDYWGQGTQVTVSS | high polyreactivity
QVQLVESGGGLVQAGGSLRLSCAASGRTFAWYAMGWYRQAPGKERELVAVIRRGSGDTYYADSVKGRFTISRDNAKNTVYLQMNSLKPEDTAVYYCAAEGRFSFYGGGRPKYSRYDYWGQGTQVTVSS | high polyreactivity
QVQLVESGGGLVQAGGSLRLSCAASGFTFPWYAMGWYRQAPGKERELVAVISSSGGSTYYADSVKGRFTISRDNAKNTVYLQMNSLKPEDTAVYYCNKDYYKRAYLFGYWGQGTQVTVSS | high polyreactivity
QVQLVESGGGLVQAGGSLRLSCAASGRTFRYNTMGWYRQAPGKERELVAAITKGAASTYYADSVKGRFTISRDNAKNTVYLQMNSLKPEDTAVYYCNAVYSRIVTQKYWGQGTQVTVSS | high polyreactivity
QVQLVESGGGLVQAGGSLRLSCAASGRTFGNYAMGWYRQAPGKDRELVAALSTTGGRTSYADSVKGRFTISRDNAKNTVYLQMNSLKPEDTAVYYCNVYTTSQARRKRIDYDFWGQGTQVTVSS | high polyreactivity
QVQLVESGGGLVQAGGSLRLSCAASGFIFDYYAMGWYRQAPGKERELVAAISRGGSTYYADSVKGRFTISRDNAKNTVYLQMKSLKPEDTAVYYCKAMSYHFWEFDYWGQGTQVTVSS | high polyreactivity
QVQLVETGGGLVQAGGSLRISCAPSGSTFAGYAMGWYRQAPGKERELVAAISYSGGTTYYADSVKGRFTISRDNAKNTVYLQMNSLKPEDTAVYYCAARKKYKTPSNDMYYWGQGTQVTVSS | high polyreactivity
QVQHVESWGGIVQARGSLRLSCAASGSTFSYNALGWYRQPPGKERELVAALTCSGASTYYAYSVKGRFTISRDKAKNTVYLQLSSMNPDDTAVYYCNAPDGPGPNAYYEFDYWGQGTQVTVSS | low polyreactivity
QVQIVESGGGLVQAGGSLRLTCAASGLTFTGNAMGWYIQAPGKERELVAAISWSGGSKYYADSVKGRYTISRDNAKNTVYLQMNSLQPEDTAVYYCADPDARYDYWGQGTQVTVSS | high polyreactivity
QVQLVESGGGLVQAGGSLRLSCAASGFIFNVYDMGWYRQAPGKERELVAAISTSGSNTYYADSVKVRFTISRDNAKNTVYLQMNSLKPEDTAVYYCNAVRVRVRWHYYAVYYWGQGTQVTVSS | high polyreactivity
QVQLVESGGGLVQAGGSLRLSCAASGRTFRVYAMGWYRQAPGKERELVAAIRSGGNTNYADSVKGRFTISRDNAKNTVYLQMNSLKPEDTAVYYCAATTYVVASRYVGTLGDDYWGQGTQVTVSS | high polyreactivity
QVQLVESGGGLVQAGGSLRLSCAASGFISFAYAMAWYRQAPGKERELVAGISRSGDSTYYADSVKGRFTISRDNAKNTVYLQMNSLKPEDTAVYYCAARQVVWFDYTTAQVGSYKVNYWGQGTQVTVSS | low polyreactivity
LVQLVESGGGLVQAGGSLRLSCAASGFISPSYALGWYRQAPGKERELVAAIRSSDGSTYYADSVKGRFTISRDNAKNTAYVQMNSRKPEDTAVYYCAAGGSSYRDDYWGQGSQVTVSS | low polyreactivity
QVQHVESGGGLVQAGGSLRLSCAASGSIYYLNAMGWYRQGPGKEWELVAAINRGGSTSYADSVKGRFTISRDNAKNTVYLQMNSLKEADTAVYYCAADHGGVQYSVRYDYWGQGTQLTVSS | low polyreactivity
QVQLVESGGGLVQAGGSLRLSCAASGFTFKLYAMGWYRQAPGKERELVAAISSSGGRTYYADSVKGRFTISRDNAKYNVYLQMNSLKPEDTAVYYCNAVRTVNDYHYDYWGQGTQVTVSS | high polyreactivity
QVQLVESGGGLVQAGGSLRLSCAASGLIFATYTMGWYRQAPGKERELVAAITWSGGRTYYADSVKGRFTISRDNAKNTVYLQMNSLKPEDTAVYYCAADPSYALGYDYWGQGTQVTVSS | high polyreactivity
QVQLVESGGGLVQAGGSLRLSCAASGFTFRRYAMGWYRQAPGKERELVAVITTAGSTNYADSVKGRFTISRDNAKNTVYLQMNSLKPEDTAVYYCATDNGTRKRRYDYWGQGTQVTVSS | low polyreactivity
QVQLVESGGGLVQAGGSLRLSCAASGFTYDSYAMRWYRQAPGKERELVAAITRRGGSTYYADSVKGRFTISRDNAKNTVYLQMNSLKPEDTAVYYCATLRLRSLGQRNYWGQGTQVTVSS | high polyreactivity
QVQLVESGGGLVQAGGSLRLSCAASGRTFYYNAMGWYRQAPGKERQLVAAITSSGSTYYADSVKGRFTISRDNAKNTVYLQMNSLKPEDTAVYYCASVTSYSHYRLSGWYRFEYWGQGTQVTVSS | high polyreactivity
QVQLVESGGGLVQAGGSHRLTCAASGSTFRRYARGWYRQAPGKERELVATISSGRRTNYADSVKGRFTISRDNAKNTVYLQMNSLKPEDTAVYYCAAAYWSSRADTVIKRYYWGQGTQVTVSS | high polyreactivity
QVQLQESGGGLVQAGGSQRLSCAASGNISVTGFMGCYRQAPGKERELVASIGIGGTTYYADSVKGRFSISRDNEKNTVYLQMNSLKPEDTAVYYCAARYLYYAYSYWGQGTQVTVSS | low polyreactivity

Sequence | polyreactivity (PSR sort gate)
QVQLVESGGGLVQAGGSLRLSCAASGLTFYYYAMGWYRQAPGKERELVASITKRGGSTYYADSVKGRFTISRDNAKNTVYLQMNSLKPEDTAVYYCAAQYRSQGQPKGGVLYYYWGQGTQVTVSS | high polyreactivity
QVQLVESGGGLVQAGGSLRLSCAASGRIFRYYAMGWYRQAPGKERELVAAISGNGGRTSYADSVKGRFTISRDTAKNTVYLQMNSLNPEDTAVYYCAKYPVQSDYLFDHWGQGTQVTVSS | high polyreactivity
QVQLVESGGGLVQAGGSLRLSCAATGLIFAYNTMGWYRQAPGKERELVAGITSSGSTYYADSVKGRFTISRDNAKNTVYVQMNSLKPEDTAVYYCAAEWDDGRSWYWYYLVGFEYWGQGTQVTVSS | high polyreactivity
QVQLVESGGGLVQAGGSLRLSCAASGRIFGHYAMGWYRQAPGKEMELVAAITIGGSTYYADSVKGRFTISRDNAKNTVYLQMNSLKPEDTAVYYCAKVGSNYRGRLGYWGQGTQVTVSS | low polyreactivity
QVQLVESGGGLVQAGGSLRLSCAASGRTLQGYAMGWYRQAPGKERELVAAISRGGGSTYADSVKGRFTISRDNAKNTVYLQMNSLKPEDTAVYYCAAVRGIYGGHYFRYEYWGQGTQVTVSS | high polyreactivity
QVQLVESGGGLVQAGGSLRLSCAASGFTFSLYAMGWYRQAPGKDRELVASISRSGGSTYYADSVKGRFTISRDNAKYTVYIQMYSLKPEDTAVYYCAARWRPYKYDSWGQGTQVTVSS | high polyreactivity
QVQLVESGGGLVQAGGSLRLSCAASGYTFSFYAMGWYRQATGKERELVAAISRSGGSTYYADSVKGRFTISRDNAKNTVYLQMNSLKPEDTAVYYCAARWPGAYHEYGYWGQGTQVTVSS | high polyreactivity
QVQLVESGGGLVQAGGSLRLSCAASGIIFRLYAMGWYRQAPGKERELVAAITSRGGSTYYADSVKGRFTISRDNAKNTVYLQKNSLKPEDTAVYYCAARPVYSGYDYWGQGPQVTVSS | high polyreactivity
QVQLVESGGGLVQAGGSNRLSCADSGLIFGFNTMGSYRQAPAKEREMVAVISSSGGSTYYADSVKARFTISRDNAKKTVYFQMNSLKPEDTAVYYSAARAYPVRYRRRDYWGQGTQVTVSS | high polyreactivity
QVQLVESGGGLVQAGGSLRLSCAASGRTFGWYAMGWYRQAPGKEREFVASINTIGGSTYYADSVKGRFTISRDNAKNTVYLQMNSLKPEDTAVYYCAAVGYVIPYDSVGYTTTDYYWGQGTQVTVSS | low polyreactivity
QVQLVESGGGLVQAGGSLRLSCAASGSIFRRYAMGWYRQAPGKERELVAGISSGGYTNYADSVKGRFTISRDNAKNTVYLQMNSLKPEDTAVYYCAAKQYRYVRYRPVDYWGQGTQVTVSS | high polyreactivity
QVQLVESGGGLVQAGGSLRLSCAASGSIFRAYAMGWYRQAPGKERELVAGITKSGGSTYYADSVKGRFTISRDNAKNTVYLQMNILKPEDTAVYYCAAYRSRTYGYWGQGTQVTVSS | high polyreactivity
QVQLVESGGGLVQAGGSLRLSCAASGRTFGYYAMGWYRQATGKERELVAAISWSDSGTYYADSVKGRFTISRDNAKNTVYLQMNSLKPEDTAVYYCAKDEPYFVFRDTYDYWGQGTQVTVSS | high polyreactivity
QVQLVESGGGLVKAGGSLRLSCAASGSTFPYYAMGWYRQAPGTEREFVAAISSSGGSTYYADSVKGRFTISRDNAKNTVYLQMNSLKPEDTAVYYFAAQGARRNYYRYGTYTNRRYDYWGQGTQVTVSS | high polyreactivity
QVQLVESGGGLVQAGGSIRLSCAASGSIYKYNAMGWYRQAPGKERELVAAISSGGSTNYADSVKGRFTISRDNAKNTVYLQMNSLKPEDTAVYYCAKDRRRWYYTRDYWGQGTQVTVSS | low polyreactivity
QVQIVESGGGLVQAGGSLRLSCAASGSIFGPYVMGWYRQAPGKERELVAAISKSRGSTYYADSVKGRFTISRDNAKNTVYLQMNSLKPEDTAVYYCATDYLGGGKRYYYWGQGTQVTVSS | high polyreactivity
QVQLVESGGGLVQAGGSLRLSCAASGSIFTKYAMGWYRQAPGKERELVAGISRTTGSTYYADSVKGRFTISRDNAKNTVYLQMNSLKPEDTAVYYCAALSYRRGISRDGGYDYWGQGTQVTVSS | high polyreactivity
QVQLVESGGGLVQAGGSLRLSCAASGSTFVDYAMGWYRQAPGKERELVAAISFSDGSTYYADSVKGRFTISRDNAKNTVYLQMNSLKPEDTAVYYCAKDAYWGYRWYTYDYWGQGTQVTVSS | low polyreactivity
QVQLVESGGCLVQAGGSLRLSCAASGFTFRWYTMGWYRQAPGKERELVAAITGSGCTTYYADSVKGRFTISRDYAKNSVYLQMNSLKPVDTAVYYCAVVTGSFRTRYTYYYLGQGTQVTVSS | high polyreactivity
QVQLVESGGGLVQAGGSLRLSCAASGSIVYYAMGWYRQAPGKERELVAAINTSGGSTYYADSVKGRFTISRDNAKNTVYLQMNSLKPEDTAVYYCAAVYVGYITGFKRGYWGQGTQVTVSS | high polyreactivity
QVQLVESGGGLVQAGGSLRLSCAASGTFYYYAMGWYRQAPGKERELVAAISNGDSTTYADSVKGRFTISRDNAKNTVYFQMNSLKPEDTAVYYCAAYRYTPRTSRGYYYWGQGTQVTVSS | low polyreactivity
